Laboratory results: the supplement of paper PMC7125110
± gives the standard error. For some of these results: This sample holds only a part of the variants without activity.

B1: glmS ribozyme (parent)
chain: AUAAAAGCGCCAGAACUACAGAAAUGUAGUUGACGAGGAGGAGGUUUAUCGAAUUUUCGGCGGAUGCCUCCAAA

Tests used:
Settings in all cases: with glucosamine-6-phosphate
glucosamine-6-phosphate [1] = variants of: B1; test: kcat; higher = faster cleavage; RNA array
Method in brief: (§1)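 Barcoded ribozyme variants on sequenced MiSeq chips were transcribed in situ by E. coli RNA polymerase and followed at 37 °C through a hybridised Cy3 probe. Glucosamine-6-phosphate at 40 μM to 10 mM in HEPES/KCl/Mg(OAc)2 buffer was flowed in, and tiles were imaged over ~14 h. Signals were normalised to baseline and to non-cleaving reference variants, and per-tile medians were fit to one- or two-exponential decays to give kobs. Weighted Michaelis–Menten fits across concentrations gave kcat and KM.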

glucosamine-6-phosphate [2] = variants of: B1; test: KM; higher = weaker cofactor use; RNA array
Method in brief: as §1

glucosamine-6-phosphate [3] = variants of: B1; test: self-cleavage kobs at 40 uM GlcN6P; higher = faster cleavage; RNA array
Method in brief: as §1

glucosamine-6-phosphate [4] = variants of: B1; test: self-cleavage kobs at 640 uM GlcN6P; higher = faster cleavage; RNA array
Method in brief: as §1

glucosamine-6-phosphate [5] = variants of: B1; test: self-cleavage kobs at 2500 uM GlcN6P; higher = faster cleavage; RNA array
Method in brief: as §1

glucosamine-6-phosphate [6] = variants of: B1; test: self-cleavage kobs at 10000 uM GlcN6P; higher = faster cleavage; RNA array
Method in brief: as §1

glucosamine-6-phosphate [7] = variants of: B1; test: self-cleavage kobs at 160 uM GlcN6P; higher = faster cleavage; RNA array
Method in brief: as §1

| Variant | kcat (glucosamine-6-phosphate [1]) [s⁻¹] | KM (glucosamine-6-phosphate [2]) [µM] | self-cleavage kobs at 40 uM GlcN6P (glucosamine-6-phosphate [3]) [s⁻¹] | self-cleavage kobs at 640 uM GlcN6P (glucosamine-6-phosphate [4]) [s⁻¹] | self-cleavage kobs at 2500 uM GlcN6P (glucosamine-6-phosphate [5]) [s⁻¹] | self-cleavage kobs at 10000 uM GlcN6P (glucosamine-6-phosphate [6]) [s⁻¹] | self-cleavage kobs at 160 uM GlcN6P (glucosamine-6-phosphate [7]) [s⁻¹] |
| --- | --- | --- | --- | --- | --- | --- | --- |
| A14G A15U G40U | 0.00322 ± 0.00023 | 690 ± 78 | 0.00018 ± 3.4e-05 | 0.00146 ± 0.00029 | 0.00279 ± 0.0008 | 0.00298 ± 0.00083 | – |
| G13U U30G | 0.000187 ± 3.9e-05 | 2660 ± 1200 | – | 2.49e-05 ± 9.4e-06 | 0.000105 ± 1.2e-05 | 0.000136 ± 2e-05 | – |
| A14G C58U C61U | 1.33e-05 ± 2.7e-06 | – | < 1e-05 | – | – | – | – |
| G13C A14U C68U | 1.07e-05 ± 1.2e-06 | – | – | – | – | – | – |
| G13C A14C U45A | 0.000417 ± 0.00017 | – | – | – | 0.000212 ± 4.3e-05 | 0.000262 ± 5.6e-05 | – |
| G13U U56G | 0.000921 ± 0.00016 | 2720 ± 820 | – | 0.000172 ± 2.5e-05 | 0.000372 ± 6.6e-05 | 0.000774 ± 9.3e-05 | 7.12e-05 ± 2e-05 |
| G13C U31C G32U U65G C67U | 6.88e-05 ± 4.5e-06 | 3040 ± 640 | – | – | – | 5.26e-05 ± 1.4e-05 | – |
| A14G A33G | < 1e-05 | – | < 1e-05 | – | < 1e-05 | < 1e-05 | < 1e-05 |
| A14G U56G | 0.0818 ± 0.014 | 1560 ± 320 | 0.00201 ± 0.00033 | 0.0223 ± 0.0035 | 0.0673 ± 0.027 | 0.0704 ± 0.02 | 0.0087 ± 0.0018 |
| A14C U30C | 1.53e-05 ± 3.1e-07 | 151 ± 50 | – | – | – | – | < 1e-05 |
| A14C A52U | 8.73e-05 ± 5e-06 | 1920 ± 430 | – | – | 5.13e-05 ± 1.4e-05 | 7.28e-05 ± 1e-05 | – |
| A14C A52G U57G | 0.000174 ± 4.6e-05 | – | – | 8.13e-05 ± 1.9e-05 | 8.49e-05 ± 2.9e-05 | 0.000182 ± 3.1e-05 | – |
| A14C A48C | 5.79e-05 ± 1.1e-05 | – | – | – | 4.95e-05 ± 1.2e-05 | 4.92e-05 ± 1.2e-05 | – |
| G13C U31C | 0.0015 ± 0.00033 | 3460 ± 1200 | 3.14e-05 ± 1e-05 | 0.000211 ± 2.9e-05 | 0.000748 ± 0.00013 | 0.00109 ± 0.00014 | 0.000104 ± 4.3e-05 |
| A14U G66C | 0.000139 ± 1.3e-05 | 5220 ± 1100 | – | – | 4.36e-05 ± 8e-06 | 9.18e-05 ± 1e-05 | – |
| A14U G66U | 0.000298 ± 3.6e-05 | 2140 ± 550 | – | 6.34e-05 ± 1.1e-05 | 0.000175 ± 2.9e-05 | 0.000243 ± 2.6e-05 | 4.39e-05 ± 1.8e-05 |

| Variant | kcat (glucosamine-6-phosphate [1]) [s⁻¹] | KM (glucosamine-6-phosphate [2]) [µM] | self-cleavage kobs at 40 uM GlcN6P (glucosamine-6-phosphate [3]) [s⁻¹] | self-cleavage kobs at 640 uM GlcN6P (glucosamine-6-phosphate [4]) [s⁻¹] | self-cleavage kobs at 2500 uM GlcN6P (glucosamine-6-phosphate [5]) [s⁻¹] | self-cleavage kobs at 10000 uM GlcN6P (glucosamine-6-phosphate [6]) [s⁻¹] | self-cleavage kobs at 160 uM GlcN6P (glucosamine-6-phosphate [7]) [s⁻¹] |
| --- | --- | --- | --- | --- | --- | --- | --- |
| A14U A52U | 0.000167 ± 2.7e-06 | 2930 ± 110 | – | 3.02e-05 ± 7.3e-06 | 7.62e-05 ± 7.8e-06 | 0.000129 ± 1e-05 | – |
| A14U A52G | 0.00038 ± 0.0001 | 2840 ± 1300 | – | 7.16e-05 ± 1e-05 | 0.000166 ± 1.6e-05 | 0.000325 ± 4.4e-05 | 5.44e-05 ± 1.7e-05 |
| G13A U56A A64G | 0.000331 ± 5.8e-05 | 2310 ± 840 | – | 8.33e-05 ± 2.5e-05 | 0.000158 ± 3e-05 | 0.000291 ± 6.6e-05 | – |
| A14U G41U | 0.000307 ± 3.4e-05 | 1010 ± 220 | – | 0.000109 ± 1.4e-05 | 0.000292 ± 5.4e-05 | 0.000271 ± 3.1e-05 | 4.48e-05 ± 7.9e-06 |
| G13C U47G | 3.48e-05 ± 2.1e-06 | – | < 1e-05 | – | – | 3.53e-05 ± 8.5e-06 | – |
| A14C U31C | 0.00408 ± 0.0011 | 2330 ± 860 | 8.42e-05 ± 1.1e-05 | 0.000748 ± 9e-05 | 0.00178 ± 0.00024 | 0.00399 ± 0.00045 | 0.000307 ± 4.3e-05 |
| G13U G32A | 0.00326 ± 0.00047 | 3530 ± 710 | 4.41e-05 ± 7.3e-06 | 0.000465 ± 5e-05 | 0.00124 ± 0.00013 | 0.00258 ± 0.00026 | 0.000153 ± 1.8e-05 |
| G13U G32C | 0.000465 ± 0.00015 | – | – | 7.27e-05 ± 1e-05 | 0.000121 ± 1.6e-05 | 0.000328 ± 2.8e-05 | – |
| A14C U65A | 0.000588 ± 2.2e-05 | 3100 ± 210 | – | 0.000103 ± 1.5e-05 | 0.000248 ± 5e-05 | 0.000453 ± 5.4e-05 | – |
| G13U A64C | 1.02e-05 ± 3e-06 | – | – | – | – | – | – |
| A14G A15U C68G | 8.39e-05 ± 2.5e-05 | – | – | 4.44e-05 ± 1.3e-05 | 9.14e-05 ± 2.3e-05 | 7.97e-05 ± 2.3e-05 | 5.83e-05 ± 2.5e-05 |
| G13C U56C | 2.35e-05 ± 6.9e-08 | 1100 ± 19 | < 1e-05 | – | – | 2.11e-05 ± 8e-06 | – |
| A14C G44U | 4.6e-05 ± 8.4e-06 | – | < 1e-05 | – | 3.7e-05 ± 1.4e-05 | 3.91e-05 ± 9.8e-06 | – |
| A14U U54C C67U | 0.00203 ± 0.00034 | 1680 ± 410 | 5.21e-05 ± 1.9e-05 | 0.000887 ± 0.00023 | 0.00131 ± 0.00025 | 0.00163 ± 0.0003 | 0.000164 ± 2.3e-05 |
| A14G C16U G43A C67G | 0.00284 ± 0.00076 | 2840 ± 1100 | 4.98e-05 ± 2.2e-05 | 0.000459 ± 8.8e-05 | 0.00221 ± 0.00072 | 0.00217 ± 0.00045 | 0.000207 ± 7.1e-05 |
